Results as given in patent US20050095242A1 (published 2005).
No end group written: not given here.

T1: BSA-Compound 1 conjugate (human CCR4 extracellular region peptide Compound 1 conjugated to bovine serum … (human, also: conjugated to BSA via SMCC))
T1 construct: Coated antigen of the ELISA; also called CCR4 partial peptide
T1 peptide: DESIYSNYYLYESIPKPC

T2: human CCR4 on CCR4/EL-4 cells (CCR4-high-expressing cells) (human, UniProt P51679 1-360)
T2 construct: also called human CCR4-high-expressing cell
T2 sequence: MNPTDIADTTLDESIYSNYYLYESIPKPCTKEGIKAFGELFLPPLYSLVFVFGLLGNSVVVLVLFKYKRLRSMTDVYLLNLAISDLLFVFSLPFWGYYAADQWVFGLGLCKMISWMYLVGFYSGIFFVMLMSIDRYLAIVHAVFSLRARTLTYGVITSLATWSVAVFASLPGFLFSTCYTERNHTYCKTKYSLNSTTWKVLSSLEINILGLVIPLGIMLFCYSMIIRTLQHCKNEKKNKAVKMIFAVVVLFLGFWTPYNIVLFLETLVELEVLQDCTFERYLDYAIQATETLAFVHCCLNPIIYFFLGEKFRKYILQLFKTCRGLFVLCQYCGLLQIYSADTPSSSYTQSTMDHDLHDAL

T3: biotinylated Compound 1 (biotinylated CCR4 partial peptide) (human, also: biotinylated, site not given here)
T3 peptide: DESIYSNYYLYESIPKPC


How the values were obtained:
[1] = biological target: T1, BSA-Compound 1 conjugate (human CCR4 …); assay: ELISA on BSA-Compound 1 conjugate, reference antibody
[2] = biological target: T2, human CCR4 on CCR4/EL-4 cells …; assay: flow cytometry (immunofluorescent method) on CCR4/EL-4 cells, 10 ug/ml antibody, reference antibody
Method: Into a 96 well plate, 2×10⁵ or more of CCR4/EL-4 cells, CCR4-high-expressing cells obtained in Reference Example 1, were dispensed. An antibody solution was prepared by diluting each of the purified antibodies and a human immunoglobulin (manufactured by Welfide) for preventing nonspecific staining to give concentrations of 10 μg/ml and 3.75 mg/ml, respectively, with a buffer for FACS (1% BSA-PBS, 0.02% EDTA, 0.05% NaN₃), and the antibody solution was added at 100 μl/well and allowed to react for 30 minutes in ice. As a negative control, an anti-human IL-5 receptor α chain antibody (WO97/10354) was reacted with the same concentration. After washing twice with 200 μl/well of the buffer for FACS, a PE-labeled anti-human IgG antibody (manufactured by Coulter) diluted 100 times was added at 50 μl/well. After the reaction in ice under shading and subsequent washing three times with 200 μl/well of the buffer for FACS, the reaction product was suspended in 500 µl of the buffer for FACS and the fluorescence intensity was measured by using a flow cytometer.

[3] = biological target: T1, BSA-Compound 1 conjugate (human CCR4 …); assay: ELISA, COS-7 culture supernatant on BSA-Compound 1 conjugate
Method: Into a 96 well ELISA plate (manufactured by Greiner), 0.05 μg/ml of the prepared conjugate was dispensed in at 50 μl/well and allowed to stand at 4° C. overnight for adsorption. After washing with PBS, PBS containing 1% BSA (hereinafter referred to as “1% BSA-PBS”) was added thereto at 100 μl/well and allowed to react at room temperature for 1 hour to block the remaining active groups. After washing each well with PBS containing 0.05% Tween 20 (hereinafter referred to as “Tween-PBS”), a culture supernatant of the transformant was added at 50 μl/well and allowed to react at room temperature for 1 hour. After the reaction and subsequent washing of each well with Tween-PBS, a peroxidase-labeled goat anti-human IgG(γ) antibody solution (manufactured by American Qualex) diluted 6,000 folds with 1% BSA-PBS was added as a secondary antibody solution at 50 μl/well and allowed to react at room temperature for 1 hour. After the reaction and subsequent washing with Tween-PBS, an ABTS substrate solution (a solution prepared by dissolving 0.55 g of 2,2′-azino-bis(3-ethylbenzothiazoline-6-sulfonic acid) ammonium in 1 liter of 0.1 M citrate buffer (pH 4.2) and adding 1 μl/ml hydrogen peroxide just before use) was added at 50 μl well to develop color, and the reaction was stopped 20 minutes thereafter by adding 5% SDS solution at 50 μl/well. Thereafter, absorbance at 415 nm was measured.

[4] = biological target: T3, biotinylated Compound 1 (biotinylated …); assay: BIAcore 2000, 4 ug/ml antibody over biotinylated Compound 1 on SA sensor tip
Method: In order to measure the binding activity in more detail, the binding activity of various purified antibodies was measured by using BIAcore 2000 (manufactured by BIACORE) as follows. In this case, HBS-EP (manufactured by BIACORE) was used as the buffer for diluting samples and for the measurement. First, 5 μl of 0.01 μg/ml solution of Compound 1 as a biotinylated CCR4 partial peptide was added to a sensor tip SA (manufactured by BIACORE) at a flow rate of 5 μl/minute and immobilized on the sensor tip.
To the prepared biotinylated compound 1-immobilized sensor tip, 20 μl of 4 μg/ml solution of each of the purified antibodies was added at a flow rate of 5 μl/minute, and after completion of the addition, the dissociation reaction was monitored for 4 minutes and then the sensor tip surface was regenerated by adding 5 μl of 10 mM HCl twice. In this way, a binding reaction curve (sensorgram) for Compound 1 was obtained.

binding result [1] | binding result [2] | binding result [3] | binding result [4] | Binder
binds | binds |  |  | anti-CCR4 human chimeric antibody KM2760 (antibody, V domains shown, Produced by transformant KM2760 (FERM BP-7054); also called anti-CCR4 chimeric antibody KM2760) VH: EVQLVESGGDLMKPGGSLKISCAASGFIFSNYGMSWVRQTPDMRLEWVATISSASTYSYYPDSVKGRFTISRDNAENSLYLQMNSLRSEDTGIYYCGRHSDGNFAFGYWGRGTLVTVSA VL: DVLMTQTPLSLPVSLGDQASISCRSSRNIVHINGDTYLEWYLQRPGQSPKLLIYKVSNRFSGVPDRFSGSGSGTDFTLKISRVEAEDLGVYYCFQGSLLPWTFGGGTRLEIRR
 |  | binds | binds | anti-CCR4 CDR-grafted antibody Gal0LV0 (antibody, V domains shown, Expressed from pKANTEX93 with human CH and CL; CDR alone grafted) VH: EVQLVESGGDLVQPGRSLRLSCAASGFIFSNYGMSWVRQAPGKGLEWVATISSASTYSYYPDSVKGRFTISRDNAKNSLYLQMNSLRVEDTALYYCARHSDGNFAFGYWGQGTLVTVSS VL: DIVMTQSPLSLPVTPGEPASISCRSSRNIVHINGDTYLEWYLQKPGQSPQLLIYKVSNRFSGVPDRFSGSGSGTDFTLKISRVEAEDVGVYYCFQGSLLPWTFGQGTKVEIK
 |  | binds |  | anti-CCR4 CDR-grafted antibody HV0LV0 (antibody, V domains shown, Expressed from pKANTEX93 with human CH and CL) VH: EVQLVESGGGLVQPGGSLRLSCAASGFTFSNYGMSWVRQAPGKGLEWVSTISSASTYSYYPDSVKGRFTISRDNSKNTLYLQMNSLRAEDTAVYYCARHSDGNFAFGYWGQGTLVTVSS VL: DIVMTQSPLSLPVTPGEPASISCRSSRNIVHINGDTYLEWYLQKPGQSPQLLIYKVSNRFSGVPDRFSGSGSGTDFTLKISRVEAEDVGVYYCFQGSLLPWTFGQGTKVEIK
